Assay results as given in publication doi:10.1101/2023.07.31.551325 (bioRxiv, 2023).

Target: the molecule itself
Assay: AUC

B1: recombinant full-length Plasmodium vivax Sub1 (PvS1FL) (complex)
chain 1: GDILPNEGKKEKDDVHKIISELRFLQKVETILESSNMSVSDVEADANAYNPDRDAPKEELQKLQDQQETPSKQPNNLRNSPQKRAEKKESPGKNKKSLRLIVSENHATSPSFFEESLLQEDVVSFIQSKGKLSNLKNLKSMIIDLNSDMTDEELAEYISLLERKGALIESDKLVGAD
chain 2: DVSLASVKDAVRRGESSVNWGKLRSTMLEVPSGESPPSHAASSGSPFDDDDDLLSEAALHREEAHLAGSKTTKGYKFNDEYRNLQWGLDLARLDETQDLINANRVSVTKICVIDSGIDYNHPDLRNNIDVNVKELHGRKGVDDDSNGVVDDVYGANFVNNSGDPMDDNYHGTHVSGIISAVGNNGIGIVGVDGHSKLVICKALDQHKLGRLGDMFKCIDYCISRQAHMINGSFSFDEYSNIFNASVEHLRSLGILFFVSASNCAHDKLSKPDIAKCDLAVNHRYPPILSKTHNNVIAVANLKRDLDESYSLSVNSFYSNIYCQLAAPGTNIYSTTPMNNYRKLNGTSMASPHVAAIASIVRSINPNLTYLQIVEILRNAIVKLPSLTERVSWGGYVDILRAVNLAIDSKAAPYIKSHSWFRWKQGSRR
  stoichiometry N: 2
